Test results from article PMC5095173, “Disulfide-activated protein kinase G Iα regulates cardiac diastolic relaxation and fine-tunes the Frank–Starling response” (Nature Communications, 2016).
Where “and” joins values, the source holds several entries; their conditions need not be identical. Identical values can stand only once.

B1: Lyrm1 pS110 (protein, UniProt B2RYU8 1-122, looked up)
LYR motif-containing protein 1: MTAASRQEVLGLYRSFFRLARKWQAASGQMEDTIKEKQYILNEARTLFQKNKNLTDPDLIKQCIDECTARIEIGLHYQIPYPRPIHLPPMGLTPRRGRGLQTQEKLRKFSKPLYLKSHDEVS
modifications: phosphorylated at S110
B2: G-protein-signaling modulator 1: PKGIα substrate, phospho site S567 (protein, UniProt Q9R080 1-673, looked up)
G-protein-signaling modulator …: MASPAPPAAEELPGPAARRLYSRMEASCLELALEGERLCKAGDFKAGVAFFEAAVQVGTEDLKTLSAIYSQLGNAYFYLKEYARALQFHKHDLLLARTIGDRMGEAKASGNLGNTLKVLGRFDEAIVCCQRHLDIAQEQGDKVGEARALYNIGNVYHAKGKQLSWNAAQDPGHLPPDVRETLHRASEFYERNLSLVKELGDRAAQGRAYGNLGNTHYLLGNFTEATTFHKERLAIAKEFGDKAAERRAYSNLGNAHIFLGRFDVAAEHYKKTLQLSRQIRDQAVEAQACYSLGNTYTLLQDYERAAEYHLRHLVIAQELADRVGEGRACWSLGNAYVSMGSPAQALTFAKKHLQISQEIGDRNGELTARMNIAHLQLALGRLTSPAAAEKPDLAGYEAQGARPKRTQRLSAETWDLLRLPLDREQNGETHHTGDWRGPSRDSLPLPMRSRKYQEGPDAIERRPREGSHSPLDSADVRVQVPRTGIPRAPSSDEECFFDLLSKFQSSRMDDQRCPLEEGQAGAAEATAAPTLEERAAQPSVTASPQTEEFFDLIASSQSRRLDDQRASVGSLPGLRITLNNVGHLRGDGDPQEPGDEFFNMLIKYQSSRIDDQRCPPPDVLPRGPTMPDEDFFSLIQRVQAKRMDEQRVDLAGSPDQEASGLPDPRQQCPPGAS
modifications: phosphorylated at S567
B3: Histone H1.5: PKGIα substrate, phospho site T35 (protein, UniProt D3ZBN0 2-222, looked up)
Histone H1.5: SETAPAETTAPAPVEKSPAKKKTKKAGAAKRKATGPPVSELITKAVSASKERGGVSLPALKKALAAGGYDVEKNNSRIKLGLKSLVSKGTLVQTKGTGASGSFKLNKKVASGEAKPKAKKTGAAKAKKPTGATPKKPKKTAGAKKTVKKTPKKAKKPAAAGVKKVTKSPKKAKAAAKPKKATKSPARPKAVKSKASKPKVTKPKAAKPKAAKVKKAVSKKK
modifications: phosphorylated at T35
B4: Heat shock protein beta-6: PKGIα substrate, phospho site S16 (protein, UniProt P97541 1-162, looked up)
Heat shock protein beta-6: MEIRVPVQPSWLRRASAPLPGFSTPGRLFDQRFGEGLLEAELASLCPAAIAPYYLRAPSVALPTAQVPTDPGYFSVLLDVKHFSPEEISVKVVGDHVEVHARHEERPDEHGFIAREFHRRYRLPPGVDPAAVTSALSPEGVLSIQATPASAQASLPSPPAAK
modifications: phosphorylated at S16
B5: Cytoplasmic dynein 1 light intermediate chain 1: PKGIα substrate, phospho sites T408 (r11) and S412 (r12) (protein, UniProt Q9QXU8 1-523, looked up)
Cytoplasmic dynein 1 light …: MAAVGRVGSFGSSPPGLASTYASGPLANELASGSGGPAAGDDEDGQNLWSRILREVSTRSRSKLPTGKNVLLLGEDGAGKTSLIRRIQGIEEYKKGRGLEYLYLNVHDEDRDDQTRCNVWILDGDLYHKGLLKFSLDALSLRDTLVMLVVDMSKPWTALDSLQKWASVVREHVDKLKIPPEEMKEMEQKLIRDFQEYVEPGEDFPASPQRRATAAQEDRDDSVVLPLGADTLTHNLGLPVLVVCTKCDAISVLEKEHDYRDEHFDFIQSHIRKFCLQYGAALIYTSVKENKNIDLVYKYIVQKLYGFPYKIPAVVVEKDAVFIPAGWDNDKKIGILHENFQTLKIEDNFEDIITKPPVRKFVHEKEIMAEDDQVFLMKLQSLLAKQPPTAAGRPVDASPRVPGGSPRTPNRSVSSNVASVSPIPAGSKKIDPNMKAGATSEGVLANFFNSLLSKKTGSPGGPGVGGSPGGGAAGASTSLPPSAKKSGQKPVLSDVHAELDRITRKPASVSPTTPPSPTEGEAS
modifications: phosphorylated at T408 and S412
B6: Histone H1.4: PKGIα substrate, phospho site S36 (protein, UniProt P43274 2-219, looked up)
Histone H1.4: SETAPAAPAAPAPAEKTPVKKKARKAAGGAKRKTSGPPVSELITKAVAASKERSGVSLAALKKALAAAGYDVEKNNSRIKLGLKSLVSKGTLVQTKGTGASGSFKLNKKAASGEAKPKAKRAGAAKAKKPAGAAKKPKKAAGTATAKKSTKKTPKKAKKPAAAAGAKKAKSPKKAKATKAKKAPKSPAKAKTVKPKAAKPKTSKPKAAKPKKTAAKKK
modifications: phosphorylated at S36
B7: CLIP-associating protein 2: PKGIα substrate, phospho site S436 (protein, UniProt Q99JD4 1-1286, looked up)
CLIP-associating protein 2: MRRLICKRICDYKSFDDEESVDGNRPSSAASAFKVPAPKTPGNPVNSARKPGSAGGPKAGGTSKEGGAGAVDEDDFIKAFTDVPSIQIYSSRELEETLNKIREILSDDKHDWDQRANALKKIRSLLVAGAAQYDCFFQHLRLLDGALKLSAKDLRSQVVREACITVAHLSTVLGNKFDHGAEAIVPTLFNLVPNSAKVMATSGCAAIRFIIRHTHVPRLIPLITSNCTSKSVPVRRRSFEFLDLLLQEWQTHSLERHAAVLVETIKKGIHDADAEARVEARKTYMGLRNHFPGEAETLYNSLEPSYQKSLQTYLKSSGSVASLPQSDRSSSSSQESLNRPFSSKWSTANPSAVAGRVSVGGSKASPLPGSLQRSRSDIDVNAAAGAKAHHAAGQAVRSGRLGAGALNPGSYASLEDTSDKMDGTASEDGRVRAKLSTPLVAVGNAKTDSRGRSRTKMVSQSQPGSRSGSPGRVLTTTALSTVSSGAQRILVNSASAQKRSKIPRSQGCSREASPSRLSVARSSRIPRPSVSQGCSREASRESSRDTSPVRSFQPLGPGYGMSQSSRLSSSVSAMRVLNTGSDVEEAVADALLLGDIRTKKKPARRRYESYGMHSDDDANSDASSACSERSYSSRNGSIPTYMRQTEDVAEVLNRCASSNWSERKEGLLGLQNLLKNQRTLSRVELKRLCEIFTRMFADPHGKVFSMFLETLVDFIQVHKDDLQDWLFVLLTQLLKKMGADLLGSVQAKVQKALDVTRESFPNDLQFNILMRFTVDQTQTPSLKVKVAILKYIETLAKQMDPGDFINSSETRLAVSRVITWTTEPKSSDVRKAAQSVLISLFELNTPEFTMLLGALPKTFQDGATKLLHNHLRNTGNGTQSSMGSPLTRPTPRSPANWSSPLTSPTNTSQNTLSPSAFDYDTENMNSEDIYSSLRGVTEAIQNFSFRSQEDMSEPLKRDPKKEDGDTVCSGPGMSDPRAGGDAPDSSQPALDNKASLLHSVPLHSSPRSRDYNPYNYSDSISPFNKSALKEAMFDDDADQFPDDLSLDHSDLVAELLKELSNHNERIEERKIALYELMKLTQEESFSVWDEHFKTILLLLLETLGDKEPTIRALALKVLKEILRHQPARFKNYAELTVMKTLEAHKDPHKEVVRSAEEAASVLATSISPEQCIKVLCPIIQTADYPINLAAIKMQTKVIERVSKETLNLLLPEIMPGLIQGYDNSESSVRKACVFCLVAVHAVIGDELKPHLSQLTGSKMKLLNLYIKRAQTGSAGADPTTDVSGQS
modifications: phosphorylated at S436

The molecules below were run on PKGIα (analogue-sensitive M438G), disulfide-activated (assay: Chemical genetic phosphoproteomic screen, disulfide-activated PKGIα M438G versus unactivated control). Conditions: control = PKGIα C42S/M438G.
Assay type: biochemical, human PKGIα; substrates in rat heart homogenate
Excerpt: (§1) We employed a chemical genetic method[18] to identify direct substrates of cGMP-activated PKGIα and disulfide bond-activated PKGIα in heart tissue. This method involves mutation of the ATP binding-site of the kinase of interest so that it can accept a ‘bulky' N6-alkylated ATP analogue for example, N6^−phenylethyl ATP. An oxygen atom on the γ phosphate is also replaced with a sulfur atom—giving an N6-alkylated ATPγS analogue—so that the mutant kinase catalyses the transfer of a thiophosphate group (–PO3S^3−) to its substrates instead of a phosphate. The thiophosphate group is nucleophilic, providing a basis for substrates of the analogue-sensitive kinase to be purified by a ‘covalent capture' protocol. LC–MS/MS allows identification of the substrate and localization of the phosphorylation site. Thiophosphorylated proteins can also be detected with a thiophosphate ester-specific antibody. Analogue-sensitive mutants of PKGIα and PKGIα C42S (which cannot form the activating intermolecular disulfide bond) were generated by mutating Met438 in the ATP-binding domain to Gly. This mutation was chosen based on a previous study where an analogue-sensitive mutant of the catalytic subunit of PKA—which shares sequence homology with PKGIα—was engineered. Detailed protocols are given below.
(§2) A pCDNA3 expression vector encoding human FLAG-tagged PKGIα (ref. [41]) underwent site-directed mutagenesis to generate constructs for untagged WT, C42S, M438G and C42S/M438G PKGIα. Mutations were introduced using the QuikChange II Site-Directed Mutagenesis Kit (Agilent) according to the manufacturer's instructions. Expression and purification of the PKGIα mutants was performed according to a published method[42] as follows: suspension FreeStyle 293-F cells (ThermoFisher Scientific) were transfected with the appropriate PKGIα construct using the stable cationic polymer polyethyleneimine (PEI) as a transfection reagent. After ∼72 h cells were harvested by centrifugation (400g; room temperature; 15 min), re-suspended in ice cold lysis buffer (25 mM sodium phosphate buffer pH 6.8; 10 mM ethylenediaminetetraacetic acid (EDTA); 100 mM NaCl; 10 mM benzamidine hydrochloride; and 10 mM dithiothreitol (DTT)) and frozen in liquid N2. Cells were lysed by three freeze (liquid N2)-thaw (37 °C) cycles and the lysate was clarified by centrifugation at 140,000g and 4 °C for 30 min. The soluble protein fraction was loaded onto a pre-equilibrated 8-(2-aminoethylamino)adenosine-3′, 5′-cyclic monophosphate column (8-AEA-cAMP agarose; BioLog, Germany) followed by washing with 20 column volumes of lysis buffer. The column was further washed with lysis buffer +3 M NaCl (5 column volumes) and PKGIα was then eluted with lysis buffer +150 mM NaCl and 500 μM cAMP. Removal of cAMP and buffer exchange was achieved by extensive dialysis against 25 mM sodium phosphate buffer pH 6.8, 2 mM EDTA and 100 mM NaCl. For ITC analysis, WT PKGIα was incubated with 10 mM lipoic acid for 2 h on ice to obtain ∼100% disulfide dimer (confirmed by SDS-PAGE). Oxidized WT or C42S PKGIα was further purified by size exclusion chromatography using a HiLoad 16/600 Superdex 200 pg column (GE Healthcare) with 50 mM sodium phosphate buffer pH 7.4 and 100 mM NaCl. Proteins were concentrated using Amicon Ultra centrifugal filter devices (Merck Millipore). DTT was absent in storage buffers so that the activating disulfide bond would not be reduced and so that the PKGIα M438G mutant would be oxidized to disulfide dimer in the presence of air (confirmed by SDS-PAGE). Protein concentration was determined by Pierce BCA assay (ThermoFisher) and enzyme activity was confirmed using the Omnia kinase assay kit (ThermoFisher).
(§3) Male Wistar rats (9–10 weeks; body weight 300–330 g) were euthanized by intraperitoneal injection of sodium pentobarbitone (200 mg kg^−1) with heparin (500 USP units). […]
For B1, the “log2 fold change Disulfide vs Control” value was 0.4439 and 0.5384.

Same assay, conditions: disulfide-activated PKGIα M438G vs basal; 1 h, 30 °C, pH 7.5, rat heart homogenate; label-free LC–MS/MS; n=4; * P<0.05 Dunnett: only phospholamban S16
With B2 the “Log2 fold change in phosphorylation, Disulfide versus control” value was 1.04.
In the case of B3, the “Log2 fold change in phosphorylation, Disulfide versus control” value is reported as 1.43.
For B4, the “Log2 fold change in phosphorylation, Disulfide versus control” value was 1.25.
For B5, the “Log2 fold change in phosphorylation, Disulfide versus control” value was 1.95.
With B6 the “Log2 fold change in phosphorylation, Disulfide versus control” value was 0.48.
In the case of B7, the “Log2 fold change in phosphorylation, Disulfide versus control” value is reported as 0.86.

Same assay, conditions: phospho site S412 (second site of this protein); n=4; not significant
With B5 the “Log2 fold change in phosphorylation, Disulfide versus control” value was 1.66.

What follows are molecules tested on PKGIα (analogue-sensitive C42S/M438G), cGMP-activated (assay: Chemical genetic phosphoproteomic screen, cGMP-activated PKGIα C42S/M438G versus unactivated control). Conditions: PKGIα C42S/M438G + 100 μM cGMP vs basal; 1 h, 30 °C, pH 7.5, rat heart homogenate; label-free LC–MS/MS; n=4; * P<0.05 Dunnett: all values except phospholamban S16.
Assay type: biochemical, human PKGIα; substrates in rat heart homogenate
Excerpt: as §1, §2, §3
With B2 the “Log2 fold change in phosphorylation, cGMP versus control” value (“Log2 fold change … cGMP versus control” below) was 2.93*.
In the case of B3, the “Log2 fold change … cGMP versus control” value is reported as 3.90*.
In the case of B4, the “Log2 fold change … cGMP versus control” value is reported as 2.61*.
With B5 the “Log2 fold change … cGMP versus control” value was 3.76*.
For B6, the “Log2 fold change … cGMP versus control” value was 1.30*.
B7 was tested, and the “Log2 fold change … cGMP versus control” value was 1.79*.

Same assay, conditions: phospho site S412 (second site of this protein); n=4; * P<0.05
For B5, the “Log2 fold change … cGMP versus control” value was 4.15*.
